From article PMC9307952, “Lipoate protein ligase B primarily recognizes the C8-phosphopantetheine arm of its donor substrate and weakly binds the acyl carrier protein” (The Journal of Biological Chemistry, 2022)

Substrate: CCCCCCCC(=O)SCCNC(=O)CCNC(=O)[C@H](O)C(C)(C)COP(=O)(O)OP(=O)(O)OC[C@H]1O[C@@H](n2cnc3c(N)ncnc32)[C@H](O)[C@@H]1OP(=O)(O)O
Test: purified protein
Settings: 5 μM LipB, 25 μM E. coli GcvH as acceptor, 0-160 μM C8-CoA, 50 mM Tris-HCl, 200 mM NaCl, pH 8.0, 30 °C

B1: E. coli LipB (EcLipB) (Escherichia coli K-12) (protein)
chain: MYQDKILVRQLGLQPYEPISQAMHEFTDTRDDSTLDEIWLVEHYPVFTQGQAGKAEHILMPGDIPVIQSDRGGQVTYHGPGQQVMYVLLNLKRRKLGVRELVTLLEQTVVNTLAELGIEAHPRADAPGVYVGEKKICSLGLRIRRGCSFHGLALNVNMDLSPFLRINPCGYAGMEMAKISQWKPEATTNNIAPRLLENILALLNNPDFEYITA
Km: 12.24 ± 0.79 µM
Vmax: 1.08 µmol/min
kcat: 0.00367 s⁻¹
